Data reported in patent US20210371490A1 (MILTENYI BIOTEC B V, published 2021).

Target: T1, TSPAN8 (UniProt P19075 1-237, limits assumed)
T1 sequence (looked up): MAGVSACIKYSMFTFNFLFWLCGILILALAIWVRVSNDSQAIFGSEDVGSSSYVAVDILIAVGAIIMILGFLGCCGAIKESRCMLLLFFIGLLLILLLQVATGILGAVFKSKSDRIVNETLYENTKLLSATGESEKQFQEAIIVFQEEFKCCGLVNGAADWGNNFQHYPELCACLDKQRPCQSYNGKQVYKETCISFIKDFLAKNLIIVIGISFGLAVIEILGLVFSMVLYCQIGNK
Assay: cell-based or functional assay

- cytokine release after 24 h co-culture with AsPC1 cells (MACSPlex), against the TSPAN8 CD8a CAR T cells: 10 fold lower
B1: TSPAN8_hl_Sig4 CAR (other)
chain: EVKLLESGGGLVQPGGSMRLSCAASGFTFTDFYMNWIRQPAGKAPEWLGFIRNKASGYTTEYNPSVKGRFTISRDNTQNMLYLQMNTLRAEDTATYYCARAHSYYGYDYFDYWGQGVMVTVSSGGGGSGGGGSGGGGSDIQMTQSPASLSASLEEIVTITCQASQDIGNWLSWYQQKPGKSPQLLIYGATSLADGVPSRFSGSRSGTQYSLKISRLQVEDIRIYYCLQAYSAPWTFGGGTKLELKAASYPPVIVEMNSSVEAIEGSHVSLLCGADSNPPPLLTWMRDGTVLREAVAESLLLELEEVTPAEDGVYACLAENAYGQDNRTVGLSVMYAPWKPTVNGTMVAVEGETVSILCSTQSNPDPILTIFKEKQILSTVIYESELQLELPAVSPEDDGEYWCVAENQYGQRATAFNLSVEFAPVLLLESHCAAARDTVQCLCVVKSNPEPSVAFELPSRNVTVNESEREFVYSERSGLVLTSILTLRGQAQAPPRVICTARNLYGAKSLELPFQGAHRLMWAKIGPIYIWAPLAGTCGVLLLSLVITLYCKRGRKKLLYIFKQPFMRPVQTTQEEDGCSCRFPEEEEGGCELRVKFSRSADAPAYQQGQNQLYNELNLGRREEYDVLDKRRGRDPEMGGKPRRKNPQEGLYNELQKDKMAEAYSEIGMKGERRRGKGHDGLYQGLSTATKDTYDALHMQALPPR
